Experimental findings from patent US20020002269A1, “ARTEMIN, A NEUROTROPHIC FACTOR” (priority 1998, published 2002) are described below.

In experiment [1] the test system is CHP126 neuroblastoma cell line. Description: Responsiveness of a neuroblastoma cell line that does not express RET (CHP126). It counts as cell-based. To be noted: data not shown.
The subject of experiment [2] is nodose ganglion (NG) neurons. As to the kind of experiment: Survival of cultured nodose ganglion neurons. Type of experiment: cell-based, rat. The note with it: FIG. 7D; for survival of NG neurons: 50 ng/ml, 3 days in culture; for survival promotion of NG neurons compared with BDNF: GDNF family ligands 50 ng/ml, BDNF 100 ng/ml. The procedure:
Each GDNF ligand family member consisted of the human mature amino acid sequence and was produced by standard recombinant DNA methods. Recombinant GDNF, neurturin and persephin were obtained from Genentech while recombinant artemin was produced as described in Example 3.
The cultures were performed using standard methods described elsewhere (Kotzbauer et al., Neuron 12:763-773, 1994; Kotzbauer et al., Nature 384:467-470, 1996; Milbrandt et al., Neuron 20:245-253, 1998). In brief, for SCG neurons, after dissection and dissociation, neurons were plated on collagen-coated 24-well tissue culture plates and maintained in NGF-containing medium (AM50) for 5 days, after which they were either kept in AM50 or switched to medium containing neutralizing anti-NGF antibodies plus GDNF, neurturin, persephin, artemin, (50 ng/ml where not noted otherwise), or no growth factors. Cultures were maintained for 3 days, after which they were fixed in 4% paraformaldehyde and stained with toluidine blue, and surviving neurons were counted. For nodose ganglion and dorsal root ganglion neuron cultures, dissociated neurons were plated directly into NGF (for dorsal root ganglia), or BDNF (for nodose ganglia, 100 ng/ml) or one of the GDNF ligands in serum-containing medium (AM50 with anti-NGF antibodies), and cells surviving after 3 days in culture were counted as above. Trigeminal ganglia were dissected, dissociated, and plated directly into medium containing NGF or the indicated GDNF ligands, and the number of surviving cells was assessed after 3 days in vitro. For all culture systems, 2-3 independent experiments were performed.

The next experiment deals with GFRα1-Fc. As to the kind of experiment: Direct binding of soluble GFRα1-Fc receptor body to plate-coated ligand. To be noted: ligand coated at 325 ng/ml, absence of RET, FIG. 9C. As to the method: To investigate which if any of the known coreceptor(s) artemin can utilize to activate RET, its ability to directly bind to soluble Fc-fusion forms of GFRα1, GFRα2, or GFRα3 was assessed. GFRα1-Fc, GFRα2-Fc and GFRα3-Fc fusion proteins were obtained from R&D Systems. Binding assays were performed similarly to assays previously described (Sanicola et al., Proc. Natl. Acad. Sci., USA 94:6238-6243, 1997). Recombinant GDNF, neurturin, artemin, persephin, or purified bovine serum albumin (BSA; Pierce) were coated to Nunc-Immuno MaxiSorp microtiter plates at 325 ng/ml in TBS (10 mM Tris-HCl pH 7.5, 150 mM NaCl) for 1 hour at 25° C. Plates were washed (3× in TBS/0.03% Tween-20), and then blocked (blocking solution: TBS/1% BSA) for 1 hr at 25° C. Receptor bodies diluted in blocking solution were added and incubated for 2 hr at 25° C., washed 5X, then incubated with 1:10,000 dilution of HRP-conjugated anti-human Fc antibodies in blocking solution (Jackson Immunoresearch) for 45 minutes at 25° C. Finally, wells were washed 5× and the presence of HRP was assayed by addition of the chromogenic substrate 3,3, 5,5-tetramethylbenzidine for 5 min. The reaction was stopped by adding an equal volume of 0.5M H2SO4, and color was measured in a plate reader at 450 nm. Non-specific binding of receptor bodies to the plates was measured in BSA coated wells, and this binding was subtracted from all other measurements.

Experiment [3] deals with SAN neuroblastoma cell line. Description: Responsiveness of a neuroblastoma cell line that does not express RET (SAN). It counts as cell-based. The note with it: data not shown.
The target of another experiment is T1, GFRα1/RET (UniProt P07949+Q62997).
T1 construct: expressed in transfected cells; host or cells: MG87 fibroblasts stably expressing human RET (RET-3T3), transiently transfected with the CMV-GFRα1 plasmid
T1 sequence (Q62997 25-430 limits assumed): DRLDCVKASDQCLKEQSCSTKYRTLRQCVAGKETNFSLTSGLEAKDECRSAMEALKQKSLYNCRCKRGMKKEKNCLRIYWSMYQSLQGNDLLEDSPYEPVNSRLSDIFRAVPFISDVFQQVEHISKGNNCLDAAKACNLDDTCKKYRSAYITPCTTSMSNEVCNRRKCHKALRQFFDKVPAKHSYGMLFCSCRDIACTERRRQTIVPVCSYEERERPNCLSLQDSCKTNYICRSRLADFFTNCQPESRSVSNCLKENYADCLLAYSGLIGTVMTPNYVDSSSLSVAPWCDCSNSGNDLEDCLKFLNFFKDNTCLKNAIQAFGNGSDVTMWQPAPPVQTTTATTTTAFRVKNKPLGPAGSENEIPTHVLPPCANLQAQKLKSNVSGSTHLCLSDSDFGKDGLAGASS
T1 sequence (P07949 29-1114): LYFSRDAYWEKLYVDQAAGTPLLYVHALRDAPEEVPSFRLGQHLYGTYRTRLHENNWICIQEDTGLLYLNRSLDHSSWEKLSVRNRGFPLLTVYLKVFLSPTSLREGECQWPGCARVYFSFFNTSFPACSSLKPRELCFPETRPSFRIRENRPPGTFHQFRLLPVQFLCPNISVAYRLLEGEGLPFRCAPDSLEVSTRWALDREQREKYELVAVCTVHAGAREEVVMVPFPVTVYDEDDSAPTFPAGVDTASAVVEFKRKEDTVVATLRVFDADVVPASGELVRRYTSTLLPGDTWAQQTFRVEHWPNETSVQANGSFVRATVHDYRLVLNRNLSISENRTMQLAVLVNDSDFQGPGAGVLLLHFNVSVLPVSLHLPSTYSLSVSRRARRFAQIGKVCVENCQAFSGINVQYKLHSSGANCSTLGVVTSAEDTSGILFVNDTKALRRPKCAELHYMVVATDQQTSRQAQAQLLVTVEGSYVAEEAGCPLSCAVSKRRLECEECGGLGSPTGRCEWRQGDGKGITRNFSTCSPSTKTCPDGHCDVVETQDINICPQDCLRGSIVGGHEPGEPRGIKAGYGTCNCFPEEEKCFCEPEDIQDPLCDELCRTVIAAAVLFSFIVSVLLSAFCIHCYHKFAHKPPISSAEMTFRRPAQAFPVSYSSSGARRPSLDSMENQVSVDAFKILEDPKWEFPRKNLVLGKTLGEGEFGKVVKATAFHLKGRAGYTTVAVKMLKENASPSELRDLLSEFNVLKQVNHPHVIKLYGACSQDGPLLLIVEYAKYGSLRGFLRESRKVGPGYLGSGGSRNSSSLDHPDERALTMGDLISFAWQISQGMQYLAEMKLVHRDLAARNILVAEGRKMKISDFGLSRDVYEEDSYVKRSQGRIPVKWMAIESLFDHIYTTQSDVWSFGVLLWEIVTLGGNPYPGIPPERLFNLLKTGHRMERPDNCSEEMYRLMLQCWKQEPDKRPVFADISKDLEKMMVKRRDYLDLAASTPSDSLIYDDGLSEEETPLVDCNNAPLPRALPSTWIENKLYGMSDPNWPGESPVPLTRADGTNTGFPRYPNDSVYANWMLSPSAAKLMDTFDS
As to the kind of experiment: Ga14-Elk/Ga14-Luc reporter in RET-3T3 fibroblasts transfected with GFRα1. To be noted: FIG. 10A; for activation of RET signaling in cells expressing GFRα1/RET (luciferase reporter): RET-3T3, 50 ng/ml for 6-8 hours. Type of experiment: cell-based, rat GFRα1, human RET. The source says:
Thus, to directly test which receptor combinations can form functional receptors for artemin, expression plasmids for the individual GFRA coreceptors together with the Ga14-Elk/Ga14-Luc reporter system were transiently transformed into fibroblasts that stably express RET. This system, which utilizes the ability of the Ga14-Elk fusion protein to respond to MAP kinase activity and activate transcription of the Ga14-luciferase reporter, has been used previously to monitor NGF/TrkA activation of the MAP kinase pathway in PC12 cells (Vossler et al., Cell 89:73-82, 1997; York et al., Nature 392:622-626, 1998), and GDNF/RET activation of MAP kinase in neuroblastoma cell lines (Worby et al., 1998, supra; Worby et al., J. Biol. Chem. 271:23619-23622, 1996).
Generation of the expression plasmids for rat GFRα1 and human GFRα2, as well as MG87 fibroblasts stably expressing human RET (RET-3T3), were described in detail previously (Baloh et al., 1997, supra; Creedon et al., 1997, supra). […]
NLF neuroblastoma cells, which naturally express GFRα2/RET (Tansey et al., submitted), or the RET-3T3 cells were plated at 85,000 cells/well in 12-well plates, and cotransfected with the reporter plasmids Ga14-Luc and CMV-Ga14-Elk (250 ng/well and 50 ng/well, respectively), CMV-lacZ (50 ng/well) for transfection normalization, one of the CMV-GFRA expression plasmids (500 ng/well), and pBluescript (650 ng/well) as carrier for a total of 1.5 μg DNA/well using the Superfect reagent (Qiagen) according to the manufacturer's instructions. […] Measurement of luciferase and β-galactosidase activity was measured using a luminometer and performed as described (Svaren et al., EMBO J 17:6010-6019, 1998). The average luciferase activity of duplicate samples was normalized to β-galactosidase activity of the cotransformed lacZ reporter, and fold activation was calculated by dividing the normalized activity in factor-treated cells by that in the no treatment control.

Take “artemin: recombinant mature human artemin (FIG. 3A, SEQ ID NO:3) with 8-histidine tag, produced in E. coli; GDNF family neurotrophic factor”: the “response of CHP126 cells” value in experiment [1] is on record as “did not respond”. In experiment [2], the “survival of NG neurons” value is on record as “supported similar numbers of NG neurons” and the “survival promotion of NG neurons compared with BDNF” value was “equal or greater survival promotion than BDNF”. Moreover, the “direct binding of GFRα1-Fc” value in the experiment on GFRα1-Fc is “not to persephin or artemin”. Also, the “response of SAN cells” value in experiment [3] is “did not respond”. Further, the “activation of RET signaling in cells expressing GFRα1/RET (luciferase reporter)” value with GFRα1/RET is reported as “able to activate RET in cells expressing GFRα1/RET”. The “degree of RET activation in cells expressing GFRα1/RET compared with GDNF” value with GFRα1/RET (RET-3T3, 50 ng/ml) was “to a lesser degree than GDNF”.

B1: GDNF: recombinant human mature GDNF obtained from Genentech (protein, UniProt P39905 78-211, looked up)
Glial cell line-derived …: SPDKQMAVLPRRERNRQAAAANPENSRGKGRRGQRGKNRGCVLTAIHLNVTDLGLGYETKEELIFRYCSGSCDAAETTYDKILKNLSRNRRLVSDKVGQACCRPIAFDDDLSFLDDNLVYHILRKHSAKRCGCI
As to B1, in experiment [1], the “response of CHP126 cells” value was “did not respond”. In experiment [2], the “survival of NG neurons” value is “supported similar numbers of NG neurons” and the “survival promotion of NG neurons compared with BDNF” value is “equal or greater survival promotion than BDNF”. Moreover, the “direct binding of GFRα1-Fc” value in the experiment with GFRα1-Fc was “able to bind to both GDNF and neurturin with similar affinity”. In addition, the “response of SAN cells” value in experiment [3] is on record as “did not respond”. Moreover, in the experiment with GFRα1/RET, the “activation of RET signaling in cells expressing GFRα1/RET (luciferase reporter)” value is on record as “activated RET signaling”.
